The source of these data is paper PMC9942873 (Immunity, 2023).

Changes are numbered by the printed parent chain.

The chains are these.
B1: RUPA-57 (antibody, V domains shown)
VH: QVQLVESGGGVVQPGRSLRLSCTASGFSFSDYGMHWVRQAPGKGLEWVAVISYHGRDKSYADSVKGRFTISRDNSKKTLYLQMNSLTAEDTALYYCAKSNDHYDNSGYFVYWGLGTKVTVSS
VL: SYELTQPPSVSVSPGQTATITCSGDALPKKFAFWYQQKSGQAPVLVIYEDTKRPSGIPERFSGSSSGTLATLTISGAQVEDEADYYCYSRDSSNTQRVFGGGTKVTVL
notes: human IgG1; source: recombinant human IgG1, 293T (Protein A purified) or GenScript
B2: RUPA-61 (antibody, V domains shown)
VH: QVQLVQSGAEVKKPGASVKVSCKASEDTFSSYYIHWVRQAPGQGLEWMGMMNPSGGGTRYTQKFQGRVTMTSDTSTSTVYMEVISLRSEDTAVYYCARVRKRDAYNNRNWGSVFGGMDVWGQGTTVTVSS
VL: QSALTQPPSASGSPGQSVSISCTGTSSDVGGHDYVSWYQHHPGKAPKLMIYEVSKRPSGVPDRFSGAKSGNTASLTVSGLQAEDEADYYCSSFGGSNNLVFGGGTKVTVV
notes: as for B1
B3: RUPA-50 (antibody, V domains shown)
VH: QVHLVESGGGVVQPGRSLRLSCAASGFTFRSYGMHWVRRVPGKGLEWVATISYDETFKDYPDSVKGRFTISRDNSKNTLFLQMNSLRPADTAVYYCAKDRAHSMHYFEYWGRGTLVTVSS
VL: SYELTQPPSVSVSPGQTARLTCSGDALPKKFAYWYQLKSGQAPVLVIYEDSKRPSGIPERFSGSSSGTTATLTISGAQVEDEADYYCYSRDGSGDQKNIFGGGTKLTVL
notes: as for B1
B4: RUPA-44 (antibody, V domains shown)
VH: QLQLQESGPGLVKPSETLSLTCTVSGGSISRSPYYWGWIRQPPGKGLEWFGSIYNNGSTYYNPPLKSRLTISVDTSKNQFSLKLSSVTAADTAVYYCARHGGSTGMKVVVIAPPDYWGQGTLVTVSS
VL: DIQMTQSPATLSASVGDRVTITCRASQSISSWLAWYQQKPGEAPKLLIYKASSLQSGVPSRFSGSGSGTKFSLTISSLQPDDFATFYCQQYHSYPYTFGQGTKLEIK
notes: as for B1
B5: RUPA-47 (antibody, V domains shown)
VH: QVQLVQSGAEVKKPGASVKLSCTASGYTFTNFGITWVRQAPGQGLEWMAWISVYSGDTDYAQRFQGRVTMTTDTSTRTAYMEMRSLSFDDTAVYYCVRGGRDSPILGGYWGQGTLVTVSS
VL: EIVLTQSPGTLSLSPGERVTLSCRASQSVRSMYLAWYQQKPGQAPRLLIHGASIRATGIPDRFSGSGSGTDFTLTISRLEREDFAVYYCHQYGSSPLTFGGGTKVESK
notes: as for B1
B6: RUPA-29 (antibody, V domains shown)
VH: QVHLVESGGGVVQPGRSLRLSCAASGFTFRSYGMHWVRLAPGKGLEWVTAIWYDGSKKHFADSVKGRFTISRDNSKNTLYLQMSSLRVEDTAVYYCARDFAHGAFYPVDWGRGTLVTVSS
VL: SYELTQPPSVSVSPGQTARITCSGDALPKKHAYWYQQKSGQAPVLVIYDDSKRPSGIPERFSGSSSGTMATLSISGAQVEDEAAYYCYSSDTSANYWVFGGGTKLTVL
notes: as for B1
B7: RUPA-54 (antibody, V domains shown)
VH: QVQLVESGGGVVQPGRSLRLSCTASGFTFRSYGIHWVRQAPGKGLQWVAFISYDGRNKYYADSVKGRFTISRDNSKNTLYLQMSGLRADDTAVYYCAKDSDNDCTATSCYTVSWGQGTLVTVSS
VL: SYELTQPPSVSVSPGQTARITCSGDALPKKYAYWYQQKSGQAPVLVIYEDKKRPSGIPERFSGSSSGTMATLTISGAQVEDEADYYCYSTDSRTDHGGIFGGGTKLTVL
notes: as for B1
B8: RUPA-72 (antibody, V domains shown)
VH: EVQLVESGGGLVQPGGSLRLSCAASGFTFSYYWMHWVRQAPGKELVWVSRIKSDGSSGTTTDYADSVKGRFTISRDTAKNTLYLQMNSLRAEDTAVYYCARAGCSNGVCPPRYYYHGMDVWGQGTTVTVSS
VL: EIVLTQSPGTLSGSPGERATLSCRASQSIRSNYLAWYQQKPGQAPRLLIYGASSRATDIPARFSGSGSGTDFTLTISRLEPEDFAVYYCQHYGNSRVTFGQGTKVEIK
notes: as for B1
B9: RUPA-70 (antibody, V domains shown)
VH: QVQLQESGPGLVKPSQTLSLTCTVSGGSISIGGYYWSWIRQHPGKGLEWIGYIYYSGTTYYNPSLKSRVIISIDTSKNQFSLRLKSVTAADTAVYYCARTGLVAAIRGSRRGQQGDYFDYWGQGTLVPVSS
VL: SYELTQPPSVSVSPGQTASLTCSGDKLGDKYASWYQQKPGQSPVLVIHQDKKRPSGIPERFSGSNSGNTATLTISGTQAMDEADYYCQAWDSNTGVFGGGTKLTVL
notes: as for B1
B10: RUPA-25 (antibody, V domains shown)
VH: QVQLVQSGAEVKKPGASVKVSCTASGYNFLTHDISWVRQATGQGLEWMGWMNPNTGKKGYVQKFQGRVTMDRDMSKSTAYMELRSLTSEDTAVYYCVRGVGSYYGSGGWFDPWGQGTLVTVSS
VL: QPVLTQPPSASETPGQKVTISCSGSSSNIGSDTVSWYVQLPGTAPKLLIYNDNQRPSGVPDRFSGSKSGTSASLAISGLQSEDEADYYCATWDASLKRRVFGGGTTLTVL
notes: as for B1
B11: RUPA-83 (antibody, V domains shown)
VH: QVQLVQSGAEVKKPGASVKVSCKASGYIFTDYGITWVRQAPGQGLEWLGWISGYSYNTNYALKFQGRVTMTTDTSTSVTYMELRNLRSDDTAVYYCARDSRSSQLLQKFDLWGQGTLVTVSS
VL: DIQLTQSPSSLSASVGDRVTITCRASQTTRNFLNWYQQKPGKAPELLIYAASTLQSGVPSRFSGSGSGTDFTLTIKNLQPEDFASYYCQQSFSSPTFGQGTKVEIK
notes: as for B1
B12: RUPA-81 (antibody, V domains shown)
VH: EVQLVATGGGLIQPGGSLRLSCTASGFNVSRMYMSWVRQAPGKGLEWVSVIYSDSSGGSTYYTDSLKGRFIISRDNSQNTLYLQMNSLRVDDTAIYYCARDVRGWGYLDFWGQGTLVTVSS
VL: EIVLTQSPGTLSLSPGERAALSCRASQGVSSSFFAWYQQKPGQAPRLLIYGASSRATGIPDRFSGSGSGTDFTLTISRLEPEDFATYYCQQYGYSPWTFGQGTKVEIK
notes: as for B1
B13: RUPA-86 (antibody, V domains shown)
VH: QVQLVQSGAEVKKPGASVKVSCKSSGFRFTGYYIHWVRQAPGQGLEWMGCINPNNGGTNYAQKFQGRVTMTRDTSITTAYMDLSRLKSDDTAVYYCARLVAYDQGLDVWGQGTTVTVSS
VL: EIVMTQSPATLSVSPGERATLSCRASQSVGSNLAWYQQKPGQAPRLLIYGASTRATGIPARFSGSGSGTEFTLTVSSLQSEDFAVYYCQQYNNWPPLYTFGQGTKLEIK
notes: as for B1
B14: RUPA-74 (antibody, V domains shown)
VH: QVQLVQSGAEVKKPGASVKVSCKASGYNFLYHDINWVRQAPGQGLEWMGWMNPNTGNRGYAQQFQDRVSLTRDMSQGTAYMELRNLRSDDTAVYYCARGVGSLYGSGGWIDPWGQGTLVTVSS
VL: QSVLTQPPSASETPGQRVTISCSGSSSNIGSNTVNWYQQVPGTAPKLLMYNDNHRPSGVSDRFSGSKSGTSASLAISGLQSADEADYYCETWDDSLKRRVFGGGTKLTVL
notes: as for B1
B15: RUPA-84 (antibody, V domains shown)
VH: QVQLVQSGAEVKKTGASVKVSCKASGYTFTSHDIIWVRQAAGQGLEWMGWMNPNTGKKGYAQKFQGRVTLTRNMSTGTAYMELNSLRSDDSAVYYCARGVGTYYGSEGWLDPWGQGTLVTVSS
VL: B14 VL with I29V, T33S, V40L, D52T, H54Q, S60P, Q80R, A82E, E90A, R99G
notes: as for B1
B16: RUPA-35 (antibody, V domains shown)
VH: QVQLVQSGAEVKKPGASVKVSCKASGYTFTSHDIIWVRQAPGQGLEWMGWMNPNIGDTGYAQKFQGRLSMTRKMSISTAYMELSSLRSEDTAVYYCSRGVGTYHGSGGWFDPWGQGTLVTVSS
VL: B14 VL with S26T, N35S, V40Y, N51S, H54Q, S60P, A82E, D86E, E90A, R99G
notes: as for B1
B17: RUPA-49 (antibody, V domains shown)
VH: QVQLVQSGAEVKKPGASVKVSCKASGYTFLYHDIIWMRQATGQGPEWMGWINPNTGNTGLAQKFQGRVSLTRNMSSGTAYMELRSLRSEDRAIYFCARGVGTYHGSGGWFDPWGQGTLVAVSS
VL: QSVLTQPPSASETPGQRVTLSCSGSSSNIGSHTVNWYRQLPGTAPKLLIHSDDQRPSGVPDRFSGSKSGTSASLAISGLQSEDEADYYCATWDDSLKRGVFGGGTKLTVL
notes: as for B1
B18: RUPA-53 (antibody, V domains shown)
VH: QVLLVQSGAEVKKPGASVKVSCKASGYTFLYHDISWVRQATGQGLEWMGWMNPNTGDTGYAQRFQGRVTMTRDMSISTAYLELGSLSSEDTAVYYCARGVGSYHGSGGWLDPWGQGTLVIVSS
VL: not shown
notes: as for B1

Sequence of Pfs48/45 D1-2 (Q8I6T1 28-289): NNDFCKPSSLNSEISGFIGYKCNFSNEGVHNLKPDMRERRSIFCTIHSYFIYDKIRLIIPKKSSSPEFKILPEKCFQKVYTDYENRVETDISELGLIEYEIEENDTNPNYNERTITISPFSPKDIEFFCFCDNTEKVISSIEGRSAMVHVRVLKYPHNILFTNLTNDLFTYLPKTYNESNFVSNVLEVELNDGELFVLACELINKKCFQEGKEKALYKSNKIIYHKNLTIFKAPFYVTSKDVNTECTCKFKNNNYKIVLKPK
Sequence of Pfs48/45 D2-3 (Q8I6T1 184-428): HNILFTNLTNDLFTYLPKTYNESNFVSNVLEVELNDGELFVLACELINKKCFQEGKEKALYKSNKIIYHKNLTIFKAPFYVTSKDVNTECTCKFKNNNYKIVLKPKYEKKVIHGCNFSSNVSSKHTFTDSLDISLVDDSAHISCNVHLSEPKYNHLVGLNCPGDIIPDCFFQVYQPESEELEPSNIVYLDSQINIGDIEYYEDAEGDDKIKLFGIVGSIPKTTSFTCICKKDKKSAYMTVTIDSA
Sequence of Pfs48/45 D3 (Q8I6T1 287-428): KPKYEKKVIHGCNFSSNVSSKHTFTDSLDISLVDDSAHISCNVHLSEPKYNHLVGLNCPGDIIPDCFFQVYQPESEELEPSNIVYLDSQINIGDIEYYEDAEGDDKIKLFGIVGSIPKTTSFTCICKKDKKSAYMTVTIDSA

The first experiment addresses Pfs48/45 D3 (Plasmodium falciparum 3D7, UniProt Q8I6T1). Briefly: ELISA. The settings on record: both partners purified.
Turning to B1, the binding result is “binds”.
In the case of B2, the binding result is on record as “binds”.
Still for that read-out and setting: in the case of B3 it was “binds”; in that of B4, “binds”.
B5: the binding result was “binds”.
With B6, the binding result is on record as “binds”.
Same read-out and setting: in the case of B7 it was “binds”; in that of B8, “binds”; in that of B9, “binds”.
As to B10, the binding result is “no binding (tested: 10 ug/ml)”.

A further experiment has as its target Pfs48/45 D1-2 (Plasmodium falciparum 3D7, UniProt Q8I6T1). Briefly: ELISA. The following applies: both partners purified. (In an ELISA, binding on a coated surface is turned into a signal by an enzyme label.)
For B11, the binding result was “binds”.
Regarding B12, the binding result is “binds”.
On to B13, for which the binding result is “binds”.
Consider B14, for which the binding result was “binds”.
In the case of B15, the binding result was “binds”.
Consider B16, for which the binding result is reported as “binds”.
On to B17, for which the binding result is given as “binds”.
Take B18: the binding result is reported as “binds”.
On the same count and under the same terms, next, B10: “binds”.

The target in the next experiment is recombinant full-length Pfs48/45 (Plasmodium falciparum 3D7, UniProt Q8I6T1). The experiment can be described thus: ELISA. The following applies: both partners purified.
Sequence of recombinant full-length Pfs48/45 (Q8I6T1 28-428): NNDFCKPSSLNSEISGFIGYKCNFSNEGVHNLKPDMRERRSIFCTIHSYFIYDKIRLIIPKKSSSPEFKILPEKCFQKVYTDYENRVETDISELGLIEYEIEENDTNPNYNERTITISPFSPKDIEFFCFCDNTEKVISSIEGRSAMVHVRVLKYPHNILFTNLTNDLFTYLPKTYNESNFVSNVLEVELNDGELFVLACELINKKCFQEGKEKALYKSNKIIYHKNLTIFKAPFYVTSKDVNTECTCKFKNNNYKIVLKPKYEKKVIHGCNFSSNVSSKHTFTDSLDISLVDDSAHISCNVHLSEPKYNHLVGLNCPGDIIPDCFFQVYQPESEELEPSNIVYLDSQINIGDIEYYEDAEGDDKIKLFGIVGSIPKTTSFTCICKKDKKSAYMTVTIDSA
Turning to B1, the binding result is “binds”.
Take B11: the binding result is listed as “binds”.
Still for that read-out and setting: in the case of B2 it was “binds”; in that of B12, “binds”.
Same read-out and setting: in the case of B3 it was “binds”; in that of B4, “binds”.
In the case of B5, the binding result is “binds”.
Still for that read-out and setting: next, B13: “binds”.
On to B14, for which the binding result is “binds”.
As to B15, the binding result is on record as “binds”.
The same measure, in the same setting: in the case of B16 it was “binds”; in that of B6, “binds”; in that of B17, “binds”.
The same measure, in the same setting: next, B7: “binds”.
Consider B8, for which the binding result was “binds”.
On the same count and under the same terms, in the case of B9 it was “binds”.
The same measure, in the same setting: in the case of B18 it was “binds”; in that of B10, “binds”.

The next experiment has as its target Pfs48/45 D2-3 (Plasmodium falciparum 3D7, UniProt Q8I6T1). Briefly: ELISA. The settings on record: both partners purified.
As for B1, the binding result is “binds”.
Same read-out and setting: next, B11: “binds”; B2: “binds”.
On the same count and under the same terms, next, B12: “binds”; B3: “binds”.
Still for that read-out and setting: next, B4: “binds”; B5: “binds”.
As for B13, the binding result is on record as “binds”.
Take B14: the binding result is on record as “binds”.
Turning to B15, the binding result is “binds”.
Consider B16, for which the binding result is on record as “binds”.
Still for that read-out and setting: next, B6: “binds”; B17: “binds”.
Regarding B7, the binding result is listed as “binds”.
The same measure, in the same setting: in the case of B8 it was “binds”; in that of B9, “binds”.
With B18, the binding result is “binds”.
Turning to B10, the binding result is reported as “binds”.
